Test results as given in publication PMC4947157.

How the values were obtained:
FANCD2;FANCI [1] = target: T1, FANCD2;FANCI (Homo sapiens;Homo sapiens, UniProt Q9BXW9;Q9NVI1 1-1451;1-1328, |); assay: EMSA; supershifted by anti-HA; 0.5 ug protein, 1 nM DNA; titrated 0.125-0.5 ug; EMSA: 25 mM Tris-HCl pH 7.5, 100 mM NaCl, 6% glycerol, 1 mM DTT, 10 ul, room temperature 1 h; 4% PAGE in 0.4x TBE at 4 C
FANCD2;FANCI [2] = target: T1, FANCD2;FANCI; assay: EMSA; 0.5 ug protein, 1 nM DNA; significantly stronger than non-crosslinked fork; titrated 0.125-0.5 ug; EMSA: 25 mM Tris-HCl pH 7.5, 100 mM NaCl, 6% glycerol, 1 mM DTT, 10 ul, room temperature 1 h; 4% PAGE in 0.4x TBE at 4 C

T1 sequence (Q9BXW9 whole entry, chain 1 of 2): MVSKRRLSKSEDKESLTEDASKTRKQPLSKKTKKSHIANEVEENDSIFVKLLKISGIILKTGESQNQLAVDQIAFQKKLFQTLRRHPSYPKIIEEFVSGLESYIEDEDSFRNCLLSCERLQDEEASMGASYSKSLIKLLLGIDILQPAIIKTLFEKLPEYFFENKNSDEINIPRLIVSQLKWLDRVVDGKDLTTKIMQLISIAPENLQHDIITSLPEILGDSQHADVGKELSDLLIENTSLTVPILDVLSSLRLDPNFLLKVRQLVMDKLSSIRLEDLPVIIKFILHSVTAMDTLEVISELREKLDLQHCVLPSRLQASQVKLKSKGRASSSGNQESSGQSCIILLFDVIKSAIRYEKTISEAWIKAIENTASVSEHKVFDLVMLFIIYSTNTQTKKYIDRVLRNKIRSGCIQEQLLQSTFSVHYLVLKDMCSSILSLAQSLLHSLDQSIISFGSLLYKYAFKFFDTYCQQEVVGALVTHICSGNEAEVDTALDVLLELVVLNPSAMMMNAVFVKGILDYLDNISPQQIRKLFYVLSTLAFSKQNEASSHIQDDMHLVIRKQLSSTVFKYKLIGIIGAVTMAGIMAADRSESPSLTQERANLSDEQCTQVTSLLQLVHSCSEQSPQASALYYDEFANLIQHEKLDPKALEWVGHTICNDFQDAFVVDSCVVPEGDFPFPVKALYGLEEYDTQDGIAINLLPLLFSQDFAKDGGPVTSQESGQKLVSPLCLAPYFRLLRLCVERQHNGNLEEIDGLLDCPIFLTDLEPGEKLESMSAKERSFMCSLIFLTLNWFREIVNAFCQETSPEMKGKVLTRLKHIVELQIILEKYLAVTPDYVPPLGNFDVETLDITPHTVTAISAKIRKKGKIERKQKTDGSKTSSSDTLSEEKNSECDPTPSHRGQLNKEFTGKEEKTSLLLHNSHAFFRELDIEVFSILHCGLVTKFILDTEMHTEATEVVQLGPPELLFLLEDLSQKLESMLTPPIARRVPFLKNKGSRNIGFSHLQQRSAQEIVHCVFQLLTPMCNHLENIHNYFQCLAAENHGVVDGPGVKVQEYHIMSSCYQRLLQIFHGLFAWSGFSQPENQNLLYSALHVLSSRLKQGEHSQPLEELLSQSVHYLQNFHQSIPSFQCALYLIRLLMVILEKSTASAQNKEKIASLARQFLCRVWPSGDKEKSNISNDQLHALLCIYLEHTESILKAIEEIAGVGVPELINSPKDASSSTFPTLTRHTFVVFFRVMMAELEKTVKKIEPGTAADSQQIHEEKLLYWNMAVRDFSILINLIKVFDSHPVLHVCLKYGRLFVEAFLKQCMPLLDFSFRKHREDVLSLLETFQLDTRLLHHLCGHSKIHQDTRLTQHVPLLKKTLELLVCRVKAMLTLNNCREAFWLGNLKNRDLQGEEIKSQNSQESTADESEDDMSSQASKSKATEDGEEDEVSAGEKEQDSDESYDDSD
T1 sequence (Q9NVI1 whole entry, chain 2 of 2): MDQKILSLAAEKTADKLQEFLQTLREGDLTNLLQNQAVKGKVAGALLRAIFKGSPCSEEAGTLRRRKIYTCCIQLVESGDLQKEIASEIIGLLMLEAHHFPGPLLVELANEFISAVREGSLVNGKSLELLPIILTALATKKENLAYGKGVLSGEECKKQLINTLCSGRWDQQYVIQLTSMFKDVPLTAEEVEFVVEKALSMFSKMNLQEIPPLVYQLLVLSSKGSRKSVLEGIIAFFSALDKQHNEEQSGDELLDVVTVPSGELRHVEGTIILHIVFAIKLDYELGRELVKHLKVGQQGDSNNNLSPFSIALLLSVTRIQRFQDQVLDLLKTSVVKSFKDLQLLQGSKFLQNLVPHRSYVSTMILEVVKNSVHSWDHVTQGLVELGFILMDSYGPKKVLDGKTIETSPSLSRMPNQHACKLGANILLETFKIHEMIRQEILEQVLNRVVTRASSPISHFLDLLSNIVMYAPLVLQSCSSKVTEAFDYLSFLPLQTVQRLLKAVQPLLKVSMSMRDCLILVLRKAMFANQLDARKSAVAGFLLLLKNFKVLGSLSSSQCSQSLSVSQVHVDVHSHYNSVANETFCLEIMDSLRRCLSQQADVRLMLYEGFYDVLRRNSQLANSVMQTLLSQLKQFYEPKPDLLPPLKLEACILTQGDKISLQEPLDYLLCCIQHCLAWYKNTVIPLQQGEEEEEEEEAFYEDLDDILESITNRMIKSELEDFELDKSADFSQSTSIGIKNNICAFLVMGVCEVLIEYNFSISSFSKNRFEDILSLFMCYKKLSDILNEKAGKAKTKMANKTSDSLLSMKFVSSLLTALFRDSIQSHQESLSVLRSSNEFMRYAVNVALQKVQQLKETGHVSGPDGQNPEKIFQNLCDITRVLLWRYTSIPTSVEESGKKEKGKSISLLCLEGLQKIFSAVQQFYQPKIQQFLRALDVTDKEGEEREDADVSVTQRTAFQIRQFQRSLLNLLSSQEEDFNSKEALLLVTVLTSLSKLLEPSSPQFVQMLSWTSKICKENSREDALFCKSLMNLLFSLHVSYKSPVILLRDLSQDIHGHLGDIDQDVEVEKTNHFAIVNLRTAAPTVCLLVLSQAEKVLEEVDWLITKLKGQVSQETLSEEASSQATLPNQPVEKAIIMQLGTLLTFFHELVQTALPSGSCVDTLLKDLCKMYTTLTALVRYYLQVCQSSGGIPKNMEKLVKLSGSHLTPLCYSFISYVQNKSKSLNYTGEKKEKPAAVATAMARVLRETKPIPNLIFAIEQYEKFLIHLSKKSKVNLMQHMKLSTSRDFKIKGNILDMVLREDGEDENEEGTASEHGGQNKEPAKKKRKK

B1: ICL14FF (dsDNA)
DNA 1: CATTGTGAATTCGCCTCTCTGTCTAGCCGAAGCTCGAAACGATCTTGTGC
DNA 2: GTCCATCAAAGTTCGACTGTGCGGCTAGACAGAGAGGCGAATTCACAATG
DNA 3: GCACAAGATCGTTTCGAGCTT
DNA 4: GTCGAACTTTGATGGAC
B1: binds (FANCD2;FANCI [1]).

B2: ICL14FF-XL (dsDNA)
DNA 1: B1 DNA 1
DNA 2: B1 DNA 2
DNA 3: GCACAAGATCGTTTCGAGCTT
DNA 4: GTCGAACTTTGATGGAC
modifications: 4,5',8-trimethylpsoralen (TMP) interstrand crosslink between S5 and S6; crosslinked bases bold in original, not recoverable from text
B2: binds (FANCD2;FANCI [2]).
